Data from patent US12528864 (GlaxoSmithKline, dated 2026).
Read-outs that look alike come from different tables or passages of the source.

What was measured:
[1] = molecular target: T1, cynomolgus monkey CD96, native, on primary cynomolgus monkey T cells (cynomolgus monkey, UniProt A0A2K5TWV6 22-569); test: flow cytometry on activated cynomolgus monkey T cells, pooled donor
T1 construct: whole, on cells
T1 sequence: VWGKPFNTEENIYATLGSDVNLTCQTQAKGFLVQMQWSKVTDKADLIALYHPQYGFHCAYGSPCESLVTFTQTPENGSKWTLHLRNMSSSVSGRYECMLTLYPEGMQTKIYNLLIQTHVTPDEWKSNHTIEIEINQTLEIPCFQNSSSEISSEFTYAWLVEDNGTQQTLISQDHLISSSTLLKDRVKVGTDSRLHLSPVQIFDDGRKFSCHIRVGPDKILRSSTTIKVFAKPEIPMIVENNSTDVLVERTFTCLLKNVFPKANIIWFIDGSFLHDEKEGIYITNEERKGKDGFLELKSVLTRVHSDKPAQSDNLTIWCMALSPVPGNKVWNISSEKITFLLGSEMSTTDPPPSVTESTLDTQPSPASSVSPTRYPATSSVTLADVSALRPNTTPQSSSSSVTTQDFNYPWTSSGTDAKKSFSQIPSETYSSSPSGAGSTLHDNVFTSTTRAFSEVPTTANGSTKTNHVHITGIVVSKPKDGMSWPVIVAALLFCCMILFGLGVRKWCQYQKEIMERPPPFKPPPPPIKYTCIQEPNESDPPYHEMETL

[2] = molecular target: T2, blood derived cynomolgus monkey CD96v2 on transiently transfected HEK cells (cynomolgus monkey); test: flow cytometry on transiently transfected HEK cells (Cyno blood derived CD96v2)
T2 construct: also called Blood derived Cyno CD96v2

[3] = molecular target: T3, recombinant murine CD96v2 (mouse, UniProt Q3U0X8 22-536, limits assumed); test: MSD-SET solution equilibrium titration, antibody titrated against constant CD96, free antigen detected
T3 construct: Soluble recombinant protein used in MSD-SET; also called mouse CD96
T3 sequence (looked up): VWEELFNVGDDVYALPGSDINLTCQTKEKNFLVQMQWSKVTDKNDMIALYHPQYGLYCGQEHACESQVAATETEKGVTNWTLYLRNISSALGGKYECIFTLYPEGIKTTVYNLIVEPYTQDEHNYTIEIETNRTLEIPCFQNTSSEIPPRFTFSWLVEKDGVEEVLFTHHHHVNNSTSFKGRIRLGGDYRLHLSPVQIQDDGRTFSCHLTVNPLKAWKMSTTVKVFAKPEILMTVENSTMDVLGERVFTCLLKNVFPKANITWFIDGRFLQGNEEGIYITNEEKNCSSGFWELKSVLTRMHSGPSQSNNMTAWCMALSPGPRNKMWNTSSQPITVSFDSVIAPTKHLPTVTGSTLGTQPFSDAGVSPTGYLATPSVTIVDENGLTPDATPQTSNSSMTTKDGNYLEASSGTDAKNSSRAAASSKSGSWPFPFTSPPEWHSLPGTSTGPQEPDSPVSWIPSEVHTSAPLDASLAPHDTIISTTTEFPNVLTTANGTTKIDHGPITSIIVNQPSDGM

[4] = molecular target: T2, blood derived cynomolgus monkey CD96v2 …; test: flow cytometry on transiently transfected HEK cells (Cyno blood derived CD96v2); remark: listed apart in the source
[5] = molecular target: T4, cynomolgus monkey CD96v2 expressed on cells (CHO cells; transiently transfected HEK cells) (cynomolgus monkey, UniProt A0A2K5TWV6 22-569); test: flow cytometry on transiently transfected HEK cells; geometric mean, n = 3
T4 construct: the cell is named under assay; also called CHO-cyCD96; Cyno CD96v2
T4 sequence: T1 sequence

[6] = molecular target: T5, human CD96v2 expressed on cells (CHO cells; transiently transfected HEK cells) (human, UniProt P40200-2 22-569); test: as above
T5 construct: whole, on cells; the cell is named under assay; also called CHO-huCD96; hCD96v2
T5 sequence (looked up): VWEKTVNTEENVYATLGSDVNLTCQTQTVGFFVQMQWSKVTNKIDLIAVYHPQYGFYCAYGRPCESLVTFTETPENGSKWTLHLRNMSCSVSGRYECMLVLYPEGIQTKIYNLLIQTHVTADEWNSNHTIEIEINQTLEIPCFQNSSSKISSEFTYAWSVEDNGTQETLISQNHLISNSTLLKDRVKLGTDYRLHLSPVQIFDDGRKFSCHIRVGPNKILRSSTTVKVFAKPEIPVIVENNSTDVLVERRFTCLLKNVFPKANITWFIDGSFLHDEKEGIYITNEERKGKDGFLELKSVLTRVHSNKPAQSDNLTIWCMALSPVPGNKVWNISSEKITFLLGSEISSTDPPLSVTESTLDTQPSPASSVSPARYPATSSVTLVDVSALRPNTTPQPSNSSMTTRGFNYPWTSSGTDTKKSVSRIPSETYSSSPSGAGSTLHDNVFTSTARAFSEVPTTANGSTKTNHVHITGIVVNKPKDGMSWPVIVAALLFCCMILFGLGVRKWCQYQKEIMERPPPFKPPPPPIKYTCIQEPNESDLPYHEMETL

[7] = molecular target: T6, recombinant cynomolgus monkey CD96v2 (cynomolgus monkey, UniProt A0A2K5TWV6 22-487, biotinylated (site not stated)); test: MSD-SET solution equilibrium titration, antibody titrated against constant biotinylated CD96, free antigen detected
T6 construct: Soluble recombinant protein used in MSD-SET; also called cynomolgus monkey biotinylated CD96 protein
T6 sequence: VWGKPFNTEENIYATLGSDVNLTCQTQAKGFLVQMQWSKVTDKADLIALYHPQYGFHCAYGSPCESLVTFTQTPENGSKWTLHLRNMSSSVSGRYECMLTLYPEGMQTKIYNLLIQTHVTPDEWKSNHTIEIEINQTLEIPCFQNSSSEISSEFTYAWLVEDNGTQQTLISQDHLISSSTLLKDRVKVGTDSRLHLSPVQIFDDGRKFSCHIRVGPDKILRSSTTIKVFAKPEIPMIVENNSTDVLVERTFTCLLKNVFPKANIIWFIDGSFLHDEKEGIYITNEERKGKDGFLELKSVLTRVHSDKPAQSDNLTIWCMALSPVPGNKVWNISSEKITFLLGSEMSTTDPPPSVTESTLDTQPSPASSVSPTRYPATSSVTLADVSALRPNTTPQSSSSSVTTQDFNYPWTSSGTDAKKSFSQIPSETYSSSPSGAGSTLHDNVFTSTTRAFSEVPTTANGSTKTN

[8] = molecular target: T5, human CD96v2 expressed on cells (CHO …); test: flow cytometry on CHO cells expressing human CD96v2
[9] = molecular target: T7, human complement component C1q (human, UniProt P02745 23-245; P02746 28-253; P02747 29-245); test: SPR
T7 construct: the three subunits are from general knowledge
T7 sequence (P02745 23-245 limits assumed, chain 1 of 3): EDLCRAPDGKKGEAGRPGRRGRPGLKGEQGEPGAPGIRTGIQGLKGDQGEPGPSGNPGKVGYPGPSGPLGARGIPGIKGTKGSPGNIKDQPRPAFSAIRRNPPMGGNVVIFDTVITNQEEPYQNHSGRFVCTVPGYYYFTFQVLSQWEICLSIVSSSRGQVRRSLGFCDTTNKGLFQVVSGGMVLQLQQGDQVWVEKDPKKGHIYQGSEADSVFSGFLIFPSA
T7 sequence (P02746 28-253 limits assumed, chain 2 of 3): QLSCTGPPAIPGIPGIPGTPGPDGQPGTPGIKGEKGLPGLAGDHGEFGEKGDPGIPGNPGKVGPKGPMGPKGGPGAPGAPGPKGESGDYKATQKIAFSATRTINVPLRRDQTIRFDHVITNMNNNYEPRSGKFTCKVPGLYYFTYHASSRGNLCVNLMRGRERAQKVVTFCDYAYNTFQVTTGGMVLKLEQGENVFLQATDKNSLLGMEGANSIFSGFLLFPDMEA
T7 sequence (P02747 29-245 limits assumed, chain 3 of 3): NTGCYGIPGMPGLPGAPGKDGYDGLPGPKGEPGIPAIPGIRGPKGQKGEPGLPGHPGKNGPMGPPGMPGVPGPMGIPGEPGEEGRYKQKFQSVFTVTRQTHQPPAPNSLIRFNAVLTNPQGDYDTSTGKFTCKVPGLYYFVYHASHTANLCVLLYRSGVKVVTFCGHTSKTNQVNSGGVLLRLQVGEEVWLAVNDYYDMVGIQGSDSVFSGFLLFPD

EC50 (read off the curve) [1]: ~0.05 nM
EC50 (read off the curve) [2]: ~7 nM
IC50 (read off the curve) [3]: ~500 pM
EC50 (read off the curve) [4]: ~5 nM
EC50 [5]: 7.88 nM
EC50 [6]: 6.44 nM
IC50 (read off the curve) [7]: ~400 pM
EC50 [8]: 0.05 nM
Kd [9]: 94.4 nM
B1: 42Y073-86F08-66 (antibody)
heavy: not shown
light: DIQLTQSPSSLSASVGDRVTITCRASQSISSYLNWYQQKPGKAPKLLIYAASSLQSGVPSRFSGSGSGTDFTLTISSLQPEDFATYYCQQVLHTITFGGGTKVEIKRTVAAPSVFIFPPSDEQLKSGTASVVCLLNNFYPREAKVQWKVDNALQSGNSQESVTEQDSKDSTYSLSSTLTLSKADYEKHKVYACEVTHQGLSSPVTKSFNRGEC
notes: also called GSK 6097608; GSK6097608
